Experimental data reported in article PMC8567202, “Phosphoinositide-binding activity of Smad2 is essential for its function in TGF-β signaling” (The Journal of Biological Chemistry, 2021).
One block for each binder: values may come before it. Square brackets hold non-standard residues; d marks the D form. Ends that are not written are not given here. fluorescein = fluorescein-6-aminohexanoyl (F-Ahx); pS = N[C@@H](COP(=O)(O)O)C(=O)O; Ahx = NCCCCCC(=O)O

Legend:
Conditions in all cases: both partners purified
[1] = target: T1, Smad2-R427A/R428A (UniProt Q62432 1-467, R427A | R428A); assay: fluorescence polarisation; fluorescence anisotropy; F-Ahx-labelled peptide fixed (2.5 μM in the methods, 2.5 nM in the legend), Smad2 WT or mutant varied (0-250 μM in the methods, 0-150 μM in the legend); 20 mM Tris pH 7.9, 160 mM NaCl; 10 min incubation
T1 construct: Smad2, full length, double mutant R427A/R428A; also called RR/AA; source: E. coli BL21 RIL codon plus, purified (Ni-NTA)
T1 sequence (Q62432 whole entry R427A/R428A): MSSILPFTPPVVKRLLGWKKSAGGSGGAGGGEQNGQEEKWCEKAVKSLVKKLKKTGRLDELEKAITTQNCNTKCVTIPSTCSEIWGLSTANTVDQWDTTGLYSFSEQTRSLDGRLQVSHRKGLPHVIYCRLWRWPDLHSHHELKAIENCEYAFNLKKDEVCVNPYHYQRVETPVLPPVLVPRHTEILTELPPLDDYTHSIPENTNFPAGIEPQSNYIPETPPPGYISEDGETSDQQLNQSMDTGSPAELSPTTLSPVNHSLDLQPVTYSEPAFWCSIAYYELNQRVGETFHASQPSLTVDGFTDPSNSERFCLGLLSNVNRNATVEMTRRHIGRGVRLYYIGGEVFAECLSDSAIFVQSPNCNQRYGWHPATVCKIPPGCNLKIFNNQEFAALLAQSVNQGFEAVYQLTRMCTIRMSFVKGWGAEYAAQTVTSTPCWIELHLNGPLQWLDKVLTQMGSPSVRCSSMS

[2] = target: T2, Smad2-Y426A (UniProt Q62432 1-467, Y426A); assay: as above
T2 construct: Smad2, full length, point mutant Y426A; source: E. coli BL21 RIL codon plus, purified (Ni-NTA)
T2 sequence (Q62432 whole entry Y426A): as the sequence (Q62432 whole entry R427A/R428A) above, with Y426A, A427R, A428R counted along it

[3] = target: T3, Smad2-K420A (UniProt Q62432 1-467, K420A); assay: as above
T3 construct: Smad2, full length, point mutant K420A; source: E. coli BL21 RIL codon plus, purified (Ni-NTA)
T3 sequence (Q62432 whole entry K420A): as the sequence (Q62432 whole entry R427A/R428A) above, with K420A, A427R, A428R counted along it

[4] = target: T4, Smad2 wild type, full length (UniProt Q62432 1-467); assay: as above
T4 construct: Smad2, full length (FL), bacterially expressed from pET-30a; also called Smad2 WT; Smad2-FL; source: E. coli BL21 RIL codon plus, purified (Ni-NTA)
T4 sequence (Q62432 whole entry): as the sequence (Q62432 whole entry R427A/R428A) above, with A427R, A428R counted along it

[5] = target: T5, Smad2-W422A (UniProt Q62432 1-467, W422A); assay: as above
T5 construct: Smad2, full length, point mutant W422A; source: E. coli BL21 RIL codon plus, purified (Ni-NTA)
T5 sequence (Q62432 whole entry W422A): as the sequence (Q62432 whole entry R427A/R428A) above, with W422A, A427R, A428R counted along it

[6] = target: T6, Smad2-E425K (UniProt Q62432 1-467, E425K); assay: as above
T6 construct: Smad2, full length, charge-reversal point mutant E425K; source: E. coli BL21 RIL codon plus, purified (Ni-NTA)
T6 sequence (Q62432 whole entry E425K): as the sequence (Q62432 whole entry R427A/R428A) above, with E425K, A427R, A428R counted along it

[7] = target: T4, Smad2 wild type, full length; assay: fluorescence polarisation; fluorescence anisotropy as a1, in the presence of 50 μM POPC/POPS/PI(4,5)P2 (77:20:3) LUVs
[8] = target: T4, Smad2 wild type, full length; assay: fluorescence polarisation; fluorescence anisotropy; F-Ahx-labelled peptide fixed (2.5 μM in the methods, 2.5 nM in the legend), Smad2 WT or mutant varied (0-250 μM in the methods, 0-150 μM in the legend); 20 mM Tris pH 7.9, 160 mM NaCl; 10 min incubation; remark: listed apart in the source

Kd [1]: 44 µM | Kd [2]: 20 µM | Kd [3]: 200 µM | Kd [4]: 20 µM | Kd [5]: 21 µM | Kd [6]: 8 µM | Kd [7]: 0.06 ± 0.007 µM | Kd [8]: 0.02 ± 0.006 µM
B1: TβRI GS region peptide (F-Ahx-YDMTTpSGpSGpSGLPLL) (peptide)
peptide: {fluorescein-Ahx}-YDMTT[pS]G[pS]G[pS]GLPLL
notes: type I TGF-β receptor (TβRI), GS region, triply phosphorylated; also called GS peptide; TβRI peptide; source: synthetic peptide; bought: AlanScientific

Kd [1]: 75 µM | Kd [2]: 70 µM | Kd [3]: 100 µM | Kd [4]: 66 µM | Kd [5]: 67 µM | Kd [6]: 55 µM
B2: TβRI L45 loop region peptide (F-Ahx-ADNKDNGT) (peptide)
peptide: {fluorescein-Ahx}-ADNKDNGT
notes: type I TGF-β receptor (TβRI), L45 loop; also called L45 peptide; L45 loop peptide; source: synthetic peptide; bought: AlanScientific
